Source: paper PMC5339705, “OGG1-DNA interactions facilitate NF-κB binding to DNA targets”

Key:
[1] = target: p65 (RelA) (UniProt Q04206 1-551); experiment: EMSA; 15 ng p65 (also 7.5 ng series) with OGG1; 10 mM Tris-HCl pH 8.0, 5 mM NaCl, 1 mM EDTA, 1 mM DTT, 0.1 mg/ml BSA, 0.1 µg/µl poly(dI-dC) (stated for NE reactions), 10 fmol probe, 10 µl, RT 5-10 min; 6% gel 0.5x TBE 4 °C; details: protein: commercial; chain copies: 2; label: 5' biotin on strand 2; blunt
[2] = target: OGG1 (UniProt O15527 1-345); experiment: EMSA; OGG1 alone; more complex when NF-kB present; 10 mM Tris-HCl pH 8.0, 5 mM NaCl, 1 mM EDTA, 1 mM DTT, 0.1 mg/ml BSA, 0.1 µg/µl poly(dI-dC) (stated for NE reactions), 10 fmol probe, 10 µl, RT 5-10 min; 6% gel 0.5x TBE 4 °C; details: protein: commercial; label: 5' biotin on strand 2; blunt
[3] = target: T1, p50 (NF-kB1) (UniProt P19838 1-433); experiment: EMSA; p50 alone; mildly enhanced by 1 ng OGG1; 10 mM Tris-HCl pH 8.0, 5 mM NaCl, 1 mM EDTA, 1 mM DTT, 0.1 mg/ml BSA, 0.1 µg/µl poly(dI-dC) (stated for NE reactions), 10 fmol probe, 10 µl, RT 5-10 min; 6% gel 0.5x TBE 4 °C; details: protein: commercial; chain copies: 2; label: 5' biotin on strand 2; blunt
[4] = target: T1, p50 (NF-kB1); experiment: EMSA; homodimer formed in p65/p50 mix, no OGG1; from 1 min; 10 mM Tris-HCl pH 8.0, 5 mM NaCl, 1 mM EDTA, 1 mM DTT, 0.1 mg/ml BSA, 0.1 µg/µl poly(dI-dC) (stated for NE reactions), 10 fmol probe, 10 µl, RT 5-10 min; 6% gel 0.5x TBE 4 °C; details: protein: commercial; chain copies: 2; label: 5' biotin on strand 2; blunt

T1 sequence (P19838 1-433): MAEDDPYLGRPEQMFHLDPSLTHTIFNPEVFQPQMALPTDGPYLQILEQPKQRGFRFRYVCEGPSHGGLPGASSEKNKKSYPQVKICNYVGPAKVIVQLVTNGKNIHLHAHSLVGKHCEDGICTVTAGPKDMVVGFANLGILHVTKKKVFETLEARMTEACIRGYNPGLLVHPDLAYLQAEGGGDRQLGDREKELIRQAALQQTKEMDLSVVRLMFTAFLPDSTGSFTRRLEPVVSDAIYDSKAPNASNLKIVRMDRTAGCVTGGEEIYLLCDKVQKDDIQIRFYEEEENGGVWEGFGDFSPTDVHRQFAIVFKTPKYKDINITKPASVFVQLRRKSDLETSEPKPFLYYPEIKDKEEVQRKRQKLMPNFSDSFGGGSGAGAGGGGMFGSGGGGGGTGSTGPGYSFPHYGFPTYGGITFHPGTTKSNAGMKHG
Sequence of OGG1 (O15527 whole entry): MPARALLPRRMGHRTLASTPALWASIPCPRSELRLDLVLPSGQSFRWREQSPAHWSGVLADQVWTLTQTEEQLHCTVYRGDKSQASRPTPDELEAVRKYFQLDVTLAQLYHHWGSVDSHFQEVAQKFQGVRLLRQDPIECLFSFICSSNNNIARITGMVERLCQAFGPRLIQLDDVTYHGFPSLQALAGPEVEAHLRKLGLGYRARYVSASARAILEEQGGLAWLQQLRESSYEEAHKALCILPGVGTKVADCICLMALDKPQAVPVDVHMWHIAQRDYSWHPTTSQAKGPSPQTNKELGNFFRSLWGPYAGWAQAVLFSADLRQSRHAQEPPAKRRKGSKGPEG
Sequence of p65 (RelA) (Q04206 whole entry): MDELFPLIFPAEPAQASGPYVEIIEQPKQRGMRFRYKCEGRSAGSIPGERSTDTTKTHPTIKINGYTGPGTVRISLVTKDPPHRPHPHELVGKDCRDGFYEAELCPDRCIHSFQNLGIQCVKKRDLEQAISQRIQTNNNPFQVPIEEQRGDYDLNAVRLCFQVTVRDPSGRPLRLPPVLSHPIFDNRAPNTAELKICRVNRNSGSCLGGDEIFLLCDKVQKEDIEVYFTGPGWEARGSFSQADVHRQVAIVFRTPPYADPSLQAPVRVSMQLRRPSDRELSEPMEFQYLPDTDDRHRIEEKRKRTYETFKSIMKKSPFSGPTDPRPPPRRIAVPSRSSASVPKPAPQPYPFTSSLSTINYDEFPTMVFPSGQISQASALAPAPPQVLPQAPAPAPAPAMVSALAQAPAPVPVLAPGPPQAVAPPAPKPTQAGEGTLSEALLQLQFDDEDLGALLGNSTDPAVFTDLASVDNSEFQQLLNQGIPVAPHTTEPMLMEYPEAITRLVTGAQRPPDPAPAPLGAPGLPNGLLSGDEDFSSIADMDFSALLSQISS

B1: κB2-G6 (dsDNA)
DNA 1: TGAGGGGACCCTGAGCTCAGGGAATTTCCCTGG
DNA 2: CCAGGGAAATTCCCTGAGCTCAGGGTCCCCTCA
modifications: 8-oxoG at strand 2 position 23 (opposite C11 of strand 1)
Question: Which results are given for B1?
Answer: binding signal [1]: > 10 fold vs p65 alone; binding result [2]: binds; binding result [3]: binds

B2: κB2-Wt (dsDNA)
DNA 1: B1 DNA 1
DNA 2: B1 DNA 2
Question: Does B2 bind [4]?
Answer: binds
